From publication PMC2329594, “A Minimal Fragment of MUC1 Mediates Growth of Cancer Cells” (PLoS ONE, 2008) come the findings set out here.

The series concerns the molecule itself. Kind of series: gold nanoparticle aggregation (colour change); histidine-tagged peptides (100 uM in PBS) on NTA-Ni gold nanoparticles, alone or mixed; colour change after 15 minutes.

B1: MUC1_(ecd-EXT) peptide (peptide, UniProt P15941 1101-1148, looked up)
peptide: VQLTLAFREGTINVHDVETQFNQYKTEAASRYNLTISDVSVSDVPFPF
notes: MUC1, human; also called shifted frame peptide; N-1101-1148-C; source: synthetic peptide
Regarding B1, the binding result is “binds”.

B2: MUC1_(SAD (self-aggregation domain)) peptide (peptide, UniProt P15941 1084-1109, looked up)
peptide: GGFLGLSNIKFRPGSVVVQLTLAFRE
notes: MUC1, human; also called N-1084-1109-C; source: synthetic peptide
Consider B2, for which the binding result is reported as “binds”.
